The target in experiment [1] is T1, GST-YxxQ (307-545), recombinant CoAA YxxQ repeats (human, UniProt Q96PK6 307-545).
T1 construct: CoAA (RBM14) YxxQ repeats, residues 307-545; also called YxxQ repeats (307-545); recombinant GST fusion CoAA YxxQ repeats; source: recombinant GST fusion protein
T1 sequence (looked up): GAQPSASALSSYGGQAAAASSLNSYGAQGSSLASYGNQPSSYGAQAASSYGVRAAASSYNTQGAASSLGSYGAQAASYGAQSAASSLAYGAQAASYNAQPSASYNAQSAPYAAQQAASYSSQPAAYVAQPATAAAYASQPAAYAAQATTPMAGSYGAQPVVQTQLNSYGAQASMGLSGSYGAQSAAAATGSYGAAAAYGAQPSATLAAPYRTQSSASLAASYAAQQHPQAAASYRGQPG
The experiment can be described thus: ELISA; GST-YxxQ or GST-AxxQ (307-545) coated at 500 ng/well on 96-well plate with BSA; biotin-labeled diheptad peptides at 6.4-20000 ng/ml overnight; streptavidin-HRP, luminescence; EC50 by sigmoidal non-linear curve fit. To be noted: both partners purified. For orientation: An ELISA detects its analyte on a solid surface through an enzyme-linked reagent.

Experiment [2] deals with T2, GST-YxxQ (307-545), recombinant CoAA YxxQ repeats (human, UniProt Q96PK6 307-545).
T2 chain: T1 sequence (looked up)
The experiment can be described thus: ELISA; competition with biotin-labeled pSer5 CTD peptide.

Experiment [3] deals with T1, GST-YxxQ (307-545), recombinant CoAA …. Put plainly: ELISA; competition: GST-YxxQ coated; non-labeled IERM peptide at 12.8-40000 ng/ml against a constant concentration of biotin-labeled CTD peptides; streptavidin-HRP. The conditions noted are these: both partners purified.

Square brackets hold non-standard residues; d marks the D form. Ends that are not written are not given here. * marks the point of attachment. Biotin = O=C1N[C@H]2[C@H](CS[C@H]2CCCCC(=O)*)N1; Ahx = NCCCCCC(=O)O

B1: biotin-labeled unphosphorylated CTD diheptad peptide (peptide)
peptide: KKSYSPTSPSYSPTSPS
modifications: biotin on the N-terminus; C6 spacer (aminocaproic acid) between KK and the peptide
notes: two lysine residues inserted between biotin and the C6 spacer: [Biotin]-KK-C6-peptide; diheptad of the CTD heptad repeats (YSPTSPS) of the RNAP II largest subunit; also called CTD peptide; unphosphorylated CTD peptide; source: synthetic peptide
Broadly, the EC50 is the concentration that produces a half-maximal response. Take B1: the concentration giving a half-maximal response (EC50) in experiment [1] turned out to be 1070 nM.

B2: biotin-labeled Ser2-phosphorylated CTD diheptad peptide (peptide)
peptide: KKSYSPTSPSYSPTSPS
modifications: phosphoserine at Ser2 of each heptad (SYpSPTSPSYpSPTSPS); biotin on the N-terminus; C6 spacer (aminocaproic acid) between KK and the peptide
notes: two lysine residues inserted between biotin and the C6 spacer: [Biotin]-KK-C6-peptide; diheptad of the CTD heptad repeats of the RNAP II largest subunit, printed as SYpSPTSPSYpSPTSPS; also called pSer2 CTD; source: synthetic peptide
As for B2, the EC50 in experiment [1] was found to be 135 nM.

B3: biotin-labeled IERM diheptad peptide (peptide)
peptide: Biotin-KK[Ahx]TIERMGSGVERMGPA
notes: two lysine residues inserted between biotin and the C6 spacer: [Biotin]-KK-C6-peptide; diheptad of the IERM repeats of hnRNP M; also called IERM peptide; source: synthetic peptide
B3: the EC50 in experiment [1] turned out to be 83 nM.

B4: biotin-labeled Ser5-phosphorylated CTD diheptad peptide (peptide)
peptide: KKSYSPTSPSYSPTSPS
modifications: phosphoserine at Ser5 of each heptad (SYSPTpSPSYSPTpSPS); biotin on the N-terminus; C6 spacer (aminocaproic acid) between KK and the peptide
notes: two lysine residues inserted between biotin and the C6 spacer: [Biotin]-KK-C6-peptide; diheptad of the CTD heptad repeats of the RNAP II largest subunit, printed as SYSPTpSPSYSPTpSPS; also called pSer5 CTD; source: synthetic peptide
In the case of B4, in experiment [1], the EC50 was determined as 101 nM.

B5: non-labeled IERM diheptad peptide (peptide)
peptide: TIERMGSGVERMGPA
notes: diheptad of the IERM repeats of hnRNP M, without biotin label; also called nonlabeled IERM peptide; IERM peptide; source: synthetic peptide
By IC50 is commonly meant the midpoint of a concentration-inhibition curve. Take B5: the IC50 in experiment [2] was found to be 106 nM. Further, the binding result in experiment [3] is recorded as “binds”.
